Test [1] concerns the target Ad5 hexon with DogTag inserted at HVR5, on Ad-DogTag virions (human adenovirus 5 (Ad5)) (UniProt P04133). In words: SDS-PAGE gel shift. In general terms: A gel shift assay detects complexes by their altered migration in electrophoresis.
For test [2] the target is unchanged. The test can be described thus: SDS-PAGE gel shift. This is another data set of the same source.

Like-named read-outs stand apart in the source and are kept apart here.

For the substance DogCatcher (designed binder), in test [1], the percent of hexon covalently coupled (% of hexon protein) was above 90.

Consider DogCatcher-NANP9 (designed binder), for which the percent of hexon covalently coupled in test [1] was > 90 % of hexon.

Consider DogCatcher-NANP18 (designed binder), for which the percent of hexon covalently coupled in test [2] and in test [1] was > 90 % of hexon throughout.

The values are drawn from paper PMC9364715.
